Experimental findings from patent US20200079854A1 (Johns Hopkins, published 2020) are described below.

Assay [1] deals with T1, KRAS wt(7-16) peptide … with HLA-A3 and b2M on cells (human).
T1 construct: peptide-pulsed T2A3 cells in flow cytometry
Nature of the assay: flow cytometry, phage-displayed scFv on peptide-pulsed T2A3 cells (FIG. 7).
Method: (§1) The pulsed cells were pelleted, washed once in cold stain buffer (PBS containing 0.5% BSA, 2 mM EDTA, and 0.1% sodium azide), and resuspended in 100 μL of stain buffer. Phage staining was performed on ice with 10 uL (approximately 1×10⁹) phage for 1 hour in 100 uL total volume, followed by one 4 mL wash in cold stain buffer. Cells were then stained with 1 uL of rabbit anti-M13 antibody (Pierce, Rockford, Ill.) in 100 uL total volume on ice for 1 hour and washed once with 4 mL of cold stain buffer. Cells were stained with anti-rabbit-PE (Biolegend) on ice for 1 hour in 100 uL total volume, followed by incubation with LIVE/DEAD Fixable Near-IR Dead Cell Stain (Thermo Fisher) for 10 min at room temperature per manufacturer's instructions. Cells were washed once in 4 mL of stain buffer followed by resuspension in 300 uL of stain buffer before analysis. Stained cells were analyzed using an LSRII flow cytometer (Becton Dickinson, Mansfield, Mass.).

Assay [2] deals with CTNNB wt(41-49) peptide … with HLA-A3 and b2M on peptide-pulsed T2A3 cells (human). As to the kind of experiment: flow cytometry, phage-displayed scFv on peptide-pulsed T2A3 cells (FIG. 12). For orientation: A flow cytometer gives signals particle by particle.
Method: (§2) Cells were stained with 10 of precipitated phage per 100 μL of cells, washed and stained with rabbit anti-M13 antibody, then washed and stained with anti-Rabbit-PE antibody. Cells were stained with a live/dead Near-IR dye, washed, and analyzed by an LSRII flow cytometer.
as §1
Assay [3] deals with KRAS wt(7-16) peptide … with HLA-A11 and b2M on peptide-pulsed Hs611.T cells (human). Nature of the assay: flow cytometry, phage-displayed scFv on peptide-pulsed Hs611.T cells (FIG. 9).
Method: as §2, §1
Assay [4] has as its target T2, IDH2 wt(134-143) peptide … with HLA-B7 and b2M on cells (human).
T2 construct: peptide-pulsed RPMI-6666 cells in flow cytometry
Nature of the assay: flow cytometry, phage-displayed scFv on peptide-pulsed RPMI-6666 cells (FIG. 3).
Method: (§3) Cells were stained with 10 μL of precipitated phage per 100 μL of cells, washed and stained with rabbit anti-M13 antibody, then washed and stained with anti-Rabbit-PE antibody. Cells were stained with a live/dead Near-IR dye, washed, and analyzed by an LSRII flow cytometer.
as §1

For assay [5], the target named is T3, IDH2 wt peptide (…) HLA-B7 biotinylated monomer (biotinylated (site not given)).
T3 construct: also called wt version of the peptide of interest in complex with the same HLA allele
As to the kind of experiment: phage ELISA on monomer-coated streptavidin plate (FIG. 1). (An ELISA detects its analyte on a solid surface through an enzyme-linked reagent.)

For assay [6], the target named is control 1 peptide (…, artificial sequence) HLA-B7 biotinylated monomer (biotinylated (site not given)). The assay is described as above.
The target in assay [7] is control 3 peptide (…, a different peptide from wt IDH2) HLA-B7 biotinylated monomer (biotinylated (site not given)). The assay is described as above.
The target in assay [8] is T1, KRAS wt(7-16) peptide … with HLA-A3 and …. As to the kind of experiment: flow cytometry, phage-displayed scFv on peptide-pulsed T2A3 cells (FIG. 8).
Method: as §3, §1

B1: KRAS G12V_A3_c121 (scFv)
scFv: DIQMTQSPSSLSASVGDRVTITCRASQDVNTAVAWYQQKPGKAPKLLIYSASFLYSGVPSRFSGSRSGTDFTLTISSLQPEDFATYYCQQSGYIPFTFGQGTKVEIKRTGGGSGGGGSGGGASEVQLVESGGGLVQPGGSLRLSCAASGFNIYGTMMHWVRQAPGKGLEWVAQFKPDSYNTYYADSVKGRFTISADTSKNTAYLQMNSLRAEDTAVYYCSRGEVYHYYAFDYWGQGTLVTVSS
As for B1, the binding result in assay [1] is “no binding”.

B2: CTNNB_S45_FA3 c19 (scFv)
scFv: DIQMTQSPSSLSASVGDRVTITCRASQDVNTAVAWYQQKPGKAPKLLIYSAYFLYSGVPSRFSGSRSGTDFTLTISSLQPEDFATYYCQQIHYKPLTFGQGTKVEIKRTGGGSGGGGSGGGASEVQLVESGGGLVQPGGSLRLSCAASGFNVAWYSIHWVRQAPGKGLEWVAQVYGGSSYTYYADSVKGRFTISADTSKNTAYLQMNSLRAEDTAVYYCSRDFYSSGMDYWGQGTLVTVSS
On to B2, for which, in assay [2], the binding result was “no binding”.

B3: KRAS_G12D_A11_D3 (scFv)
scFv: DIQMTQSPSSLSASVGDRVTITCRASQDVNTAVAWYQQKPGKAPKLLIYSASFLYSGVPSRFSGSRSGTDFTLTISSLQPEDFATYYCQQYSYYPITFGQGTKVEIKRTGGGSGGGGSGGGASEVQLVESGGGLVQPGGSLRLSCAASGFNFSYGYMHWVRQAPGKGLEWVAWISGYTGNTYYADSVKGRFTISADTSKNTAYLQMNSLRAEDTAVYYCSRAASLSSSYYSAFDVWGQGTLVTVSS
In the case of B3, the binding result in assay [3] was “no binding”.

B4: IDH2_R140Q_B7_c18 (scFv)
scFv: DIQMTQSPSSLSASVGDRVTITCRASQDVNTAVAWYQQKPGKAPKLLIYSASFLYSGVPSRFSGSRSGTDFTLTISSLQPEDFATYYCQQSYYMPFTFGQGTKVEIKRTGGGSGGGGSGGGASEVQLVESGGGLVQPGGSLRLSCAASGFNIFRGYMHWVRQAPGKGLEWVAMISPHSDYTSYADSVKGRFTISADTSKNTAYLQMNSLRAEDTAVYYCSRSYGWAAFDYWGQGTLVTVSS
With B4, the binding result in assay [4], in assay [5], in assay [6] and in assay [7] was “no binding” in each case.

B5: CTNNB_S45F_A3_E10 (scFv)
scFv: DIQMTQSPSSLSASVGDRVTITCRASQDVNTAVAWYQQKPGKAPKLLIYSASFLYSGVPSRFSGSRSGTDFTLTISSLQPEDFATYYCQQSYYSPPTFGQGTKVEIKRTGGGSGGGASEVQLVESGGGLVQPGGSLRLSCAASGFNINNTYIHWVRQAPGKGLEWVASIYPTDGYTRYADSVKGRFTISADTSKNTAYLQMNSLRAEDTAVYYCSRTYYSYYSAMDVWGQGTLVTVSS
As to B5, the binding result in assay [2] is reported as “no binding”.

B6: KRAS_G12D_A3_c111 (scFv)
scFv: DIQMTQSPSSLSASVGDRVTITCRASQDVNTAVAWYQQKPGKAPKLLIYSASFLYSGVPSRFSGSRSGTDFTLTISSLQPEDFATYYCQQYMYSPVTFGQGTKVEIKRTGGGSGGGGSGGGASEVQLVESGGGLVQPGGSLRLSCAASGFNVSAYWMHWVRQAPGKGLEWVAQIYGGSGYTMYADSVKGRFTISADTSKNTAYLQMNSLRAEDTAVYYCSRTHSYWSAFDYWGQGTLVTVSS
As for B6, in assay [8], the binding result is listed as “no binding”.

B7: KRAS_G12D_A3_D12 (scFv)
scFv: DIQMTQSPSSLSASVGDRVTITCRASQDVNTAVAWYQQKPGKAPKLLIYSASFLYSGVPSRFSGSRSGTDFTLTISSLQPEDFATYYCQQSSSSPITFGQGTKVEIKRTGGGSGGGGSGGGASEVQLVESGGGLVQPGGSLRLSCAASGFNISGYGMHWVRQAPGKGLEWVAYLYGGSDYTNYADSVKGRFTISADTSKNTAYLQMNSLRAEDTAVYYCSRTVRYAFDYWGQGTLVTVSS
Consider B7, for which the binding result in assay [8] is recorded as “no binding”.

B8: KRAS_G12D_A11_D22 (scFv)
scFv: DIQMTQSPSSLSASVGDRVTITCRASQDVNTAVAWYQQKPGKAPKLLIYSASFLYSGVPSRFSGSRSGTDFTLTISSLQPEDFATYYCQQYEYYPMTFGQGTKVEIKRTGGGSGGGGSGGGASEVQLVESGGGLVQPGGSLRLSCAASGFNVMYSTMHWVRQAPGKGLEWVASIYSWSDYTYYADSVKGRFTISADTSKNTAYLQMNSLRAEDTAVYYCSRGYAHNSFDYWGQGTLVTVSS
Consider B8, for which the binding result in assay [3] is “no binding”.

B9: KRAS_G12D_A11_D14 (scFv)
scFv: DIQMTQSPSSLSASVGDRVTITCRASQDVNTAVAWYQQKPGKAPKLLIYSASFLYSGVPSRFSGSRSGTDFTLTISSLQPEDFATYYCQQYSYTPVTFGQGTKVEIKRTGGGSGGGGSGGGASEVQLVESGGGLVQPGGSLRLSCAASGFNVWGPGMHWVRQAPGKGLEWVARIHPFSGNTYYADSVKGRFTISADTSKNTAYLQMNSLRAEDTAVYYCSRGYSYSAMDYWGQGTLVTVSS
Consider B9, for which the binding result in assay [3] is “no binding”.

B10: KRAS_G12D_A11_D18 (scFv)
scFv: DIQMTQSPSSLSASVGDRVTITCRASQDVNTAVAWYQQKPGKAPKLLIYSASFLYSGVPSRFSGSRSGTDFTLTISSLQPEDFATYYCQQYSYEPVTFGQGTKVEIKRTGGGSGGGGSGGGASEVQLVESGGGLVQPGGSLRLSCAASGFNVSGSQMHWVRQAPGKGLEWVARIPGWSGYTYYADSVKGRFTISADTSKNTAYLQMNSLRAEDTAVYYCSRGYSYFAMDYWGQGTLVTVSS
For the molecule B10, the binding result in assay [3] is recorded as “no binding”.

B11: CTNNB_S45_FA3_c13 (scFv)
scFv: DIQMTQSPSSLSASVGDRVTITCRASQDVNTAVAWYQQKPGKAPKLLIYSAYFLYSGVPSRFSGSRSGTDFTLTISSLQPEDFATYYCQQIYTSPITFGQGTKVEIKRTGGGSGGGGSGGGASEVQLVESGGGLVQPGGSLRLSCAASGFNFITTGMHWVRQAPGKGLEWVARIGPGSDYTNYADSVKGRFTISADTSKNTAYLQMNSLRAEDTAVYYCSRYYYASALDYWGQGTLVTVSS
As to B11, the binding result in assay [2] is on record as “no binding”.

B12: KRAS G12V_A3_c122 (scFv)
scFv: DIQMTQSPSSLSASVGDRVTITCRASQDVNTAVAWYQQKPGKAPKLLIYSASFLYSGVPSRFSGSRSGTDFTLTISSLQPEDFATYYCQQGAYYRPFTFGQGTKVEIKRTGGGSGGGGSGGGASEVQLVESGGGLVQPGGSLRLSCAASGFNISYSYMHWVRQAPGKGLEWVATLLPYDGNTYYADSVKGRFTISADTSKNTAYLQMNSLRAEDTAVYYCSRAAYSSMDVWGQGTLVTVSS
Regarding B12, the binding result in assay [1] is recorded as “no binding”.

B13: CTNNB_S45_FA3_c14 (scFv)
scFv: DIQMTQSPSSLSASVGDRVTITCRASQDVNTAVAWYQQKPGKAPKLLIYSASFLYSGVPSRFSGSRSGTDFTLTISSLQPEDFATYYCQQRAYFPITFGQGTKVEIKRTGGGSGGGGSGGGASEVQLVESGGGLVQPGGSLRLSCAASGFNFSDYGMHWVRQAPGKGLEWVAMLIPASGYTNYADSVKGRFTISADTSKNTAYLQMNSLRAEDTAVYYCSRGWSYYMDYWGQGTLVTVSS
As for B13, in assay [2], the binding result was “no binding”.

B14: KRAS G12V_A3_c120 (scFv)
scFv: DIQMTQSPSSLSASVGDRVTITCRASQDVNTAVAWYQQKPGKAPKLLIYSASFLYSGVPSRFSGSRSGTDFTLTISSLQPEDFATYYCQQKSEYSPWTFGQGTKVEIKRTGGGSGGGGSGGGASEVQLVESGGGLVQPGGSLRLSCAASGFNIYRYGIHWVRQAPGKGLEWVAVLYPYGYSTSYADSVKGRFTISADTSKNTAYLQMNSLRAEDTAVYYCSRSYAYGYFAYWGQGTLVTVSS
Regarding B14, the binding result in assay [1] was “no binding”.

B15: KRAS G12V_A3_V12 (scFv)
scFv: DIQMTQSPSSLSASVGDRVTITCRASQDVNTAVAWYQQKPGKAPKLLIYSASFLYSGVPSRFSGSRSGTDFTLTISSLQPEDFATYYCQQASYYYPLTFGQGTKVEIKRTGGGSGGGGSGGGASEVQLVESGGGLVQPGGSLRLSCAASGFNISASGMHWVRQAPGKGLEWVADIHPLKPYTNYADSVKGRFTISADTSKNTAYLQMNSLRAEDTAVYYCSRYSSMYYYYFDYWGQGTLVTVSS
For B15, the binding result in assay [1] is “no binding”.

B16: CTNNB_S45_FA3 c17 (scFv)
scFv: DIQMTQSPSSLSASVGDRVTITCRASQDVNTAVAWYQQKPGKAPKLLIYSASFLYSGVPSRFSGSRSGTDFTLTISSLQPEDFATYYCQQQYAYTPITFGQGTKVEIKRTGGGSGGGGSGGGASEVQLVESGGGLVQPGGSLRLSCAASGFNVWSYGIHWVRQAPGKGLEWVAGVTPDGSYTYYADSVKGRFTISADTSKNTAYLQMNSLRAEDTAVYYCSRSYGWAMDYWGQGTLVTVSS
In the case of B16, in assay [2], the binding result is reported as “no binding”.

B17: KRAS_G12D_A11_D21 (scFv)
scFv: DIQMTQSPSSLSASVGDRVTITCRASQDVNTAVAWYQQKPGKAPKLLIYSASFLYSGVPSRFSGSRSGTDFTLTISSLQPEDFATYYCQQYAYYSPVTFGQGTKVEIKRTGGGSGGGGSGGGASEVQLVESGGGLVQPGGSLRLSCAASGFNIYGQMMHWVRQAPGKGLEWVAFLSPFSGNTYYADSVKGRFTISADTSKNTAYLQMNSLRAEDTAVYYCSRNISYEQSSAFDYWGQGTLVTVSS
On to B17, for which, in assay [3], the binding result is “no binding”.
